# Reference: patent US7442375B2, “Compositions of beta-defensin inducing agents” (Case Western Reserve University, priority 2002, dated 2008)
# Key:
# HIV-1 X4 B-HXB2 = assay: hBD-virion interaction: virions incubated with hBD, pelleted, washed, used to infect GHOST X4/R5 cells; type: cell-based
# Procedure: (§1) (a) CXCR4 tropic HXB2 and CCR5 tropic 97ZA003 HIV-1 strains were incubated with 20 μg/ml hBD-1, -2, or -3 in 10 mM PB for 1 h. Virions were pelleted, washed extensively with PBS and used to infect GHOST X4/R5 cells. RT activity was measured 48 h post-infection. The final two columns represent an additional 20 μg/ml of hBD-2 or -3 during infection. (b) Immunoelectron microscopy analysis showing the interaction of hBD-2 and -3 with HIV-1 and with MT4 cell membrane. X4 HIV-1 HXB2 strain and MT4 cells were incubated with hBD-2 or -3 (20 μg/ml), 37° C., 1 h. Polyclonal anti-hBD-2 or -3 antibodies were added, followed by addition of secondary IgG conjugated with 10-nm gold particles. Arrows indicate hBD-2 and -3 localization to virions and cell membrane.
# (§2) In order to verify a direct hBD-virion interaction, the X4 B-HXB2 and R5-C-97ZA003 HIV-1 strains was incubated with 20 μg/ml of each hBD in 10 mM PB for 1 h, followed by pelleting and extensive washing. Virions were then used to infect GHOST X4/R5 cells. […] To further define these interactions, MT4 cells, infected with the CXCR4 tropic B-HXB2, were incubated with hBD-2 or -3 in RPMI, followed by the addition of anti-hBD-2 or -3 antibodies and goat anti-rabbit IgG conjugated with 10-nm gold particles.
# HIV-1 R5-C-97ZA003 = assay: as above; type: cell-based; conditions: 20 μg/ml in 10 mM PB 1 h; RT activity 48 h post-infection
# Procedure: as §1, §2
# MT4 cellular membrane = assay: Immunogold transmission electron microscopy; type: binding, human; conditions: 20 μg/ml, 37° C., 1 h; anti-hBD antibody and 10-nm gold IgG
# Procedure: as §1
# (§3) MT4 cells in RPMI, or X4 strain B-HXB2 viral particles in 10 mM phosphate buffer (PB), were incubated with 20 μg/ml hBD-2 and -3 at 37° C. for 1 h. Cells and virions were centrifuged (15 min, 1200 rpm for cells; 30 min, 35 000 3 g for virus) and washed twice with PBS to remove unbound hBD. Cells and virions were mixed and fixed with 4% paraformaldehyde/0.5% glutaraldehyde, dehydrated, embedded in LR WHITE resin (London Resin Company Ltd, Berkshire, UK), and labeled after embedding as described [Briquet et al.]. […]
# CEM X4/R5 cells = assay: Confocal microscopy, localisation of hBD on CEM X4/R5 cells; type: cell-based, human; conditions: live cells incubated with hBD, then anti-hBD antibodies
# Procedure: CEM X4/R5 cells were grown in RPMI-1640 medium containing 5% FBS and 400 μg/ml G418. Cells were collected, washed twice with PBS, resuspended in RPMI with 0.5% FBS or supplemented with 20 μg/ml recombinant hBD-2 or -3, and incubated at 37° C., 5% CO2 for 3 h. A second aliquot of cells, after incubation with hBD, was treated with FACS/Perm (PharMingen) at room temperature for 10 min and then washed three times with PBS. A third aliquot of cells was fixed in 1% paraformaldehyde on ice for 30 min, washed three times with PBS, and then incubated with 20 μg/ml hBD-2 or -3. Cells were stained with PE-labeled CXCR4 or CCR5 (PharMingen), or with primary goat anti-hBD-2 antibodies (Cell Sciences, Norwood, Mass., USA), or with rabbit anti-hBD-3 antibodies (Orbingen, San Diego, Calif., USA) at room temperature for 90 min, followed by washing three times with PBS. Fluorescein isothiocyanate-labeled rabbit anti-goat IgG (Jackson ImmunoResearch, West Grove, Pa., USA) for detection of hBD-2, or goat anti-rabbit IgG (Sigma) for detection of hBD-3, were added, respectively, at room temperature and incubated for 90 min. […] All samples were observed using a dual scanning confocal microscope system (Zeiss LSM 510, Oberkochem, Germany) and analyzed with the Zeiss LSM 5 Image Browser. […]
# HIV-1 B-HXB2 virions = assay: Immunogold transmission electron microscopy; type: binding; conditions: 20 μg/ml, 37° C., 1 h; anti-hBD antibody and 10-nm gold IgG
# Procedure: as §1, §3
# CXCR4 = CXCR4 (Homo sapiens, UniProt P61073); assay: Flow cytometric analysis of co-receptor surface expression on unstimulated PBMC; type: cell-based; parameters: endogenous in cells; host or cells: unstimulated peripheral blood mononuclear cells (PBMC); conditions: 30 μg/ml, 3 h, high salt medium without FBS
# Procedure: Unstimulated PBMC were treated for 3 hrs with hBD-1, -2, or -3 (30 μg/ml) in DMEM (high salt) in the absence of FBS. The CXCR4 natural ligand SDF-1AE (2 μg/ml) and the CCR5 antagonist PSC-RANTES (100 nM) were used as positive controls. CXCR4 and CCR5 surface expression was calculated using known ratios of QuantiBRITE-PE beads (Becton Dickenson) by flow cytometry. Results are the means of seven experiments±SD.
# Unstimulated PBMC were treated with 30 μg/ml hBD-1, -2, or -3 in high salt medium (RPMI-1640) in the absence of FBS, 3 h. The CXCR4 natural ligand SDF-1α (R&D Systems, Minneapolis, Minn., USA) and the CCR5 antagonist PSC-RANTES were used as controls. Cells were incubated with peridinin chlorophyll protein-conjugated anti-human CD4 antibody, and either phycoerythrin (PE)-conjugated anti-human CXCR4 antibody, PE-conjugated anti-human CCR5 antibody, or PE-conjugated mouse immunoglobulin G2a (IgG2a), isotype standard (PharmMingen, San Diego, Calif., USA) [Salkowitz et al.]. Fluorescence intensity was reported as receptor density by quantitative flow cytometry (FACSCaliber; Becton Dickenson, San Jose, Calif., USA) [Iyer et al.]. Data were analyzed using CELLQuest software (Becton Dickenson).
# Surface expression of CXCR4 was decreased by 51%±18% and 52%±20% (SD) respectively after incubation with 30 μg/ml of hBD-2 or hBD-3 (FIG. 5).
# Sequence of CXCR4 (P61073 whole entry): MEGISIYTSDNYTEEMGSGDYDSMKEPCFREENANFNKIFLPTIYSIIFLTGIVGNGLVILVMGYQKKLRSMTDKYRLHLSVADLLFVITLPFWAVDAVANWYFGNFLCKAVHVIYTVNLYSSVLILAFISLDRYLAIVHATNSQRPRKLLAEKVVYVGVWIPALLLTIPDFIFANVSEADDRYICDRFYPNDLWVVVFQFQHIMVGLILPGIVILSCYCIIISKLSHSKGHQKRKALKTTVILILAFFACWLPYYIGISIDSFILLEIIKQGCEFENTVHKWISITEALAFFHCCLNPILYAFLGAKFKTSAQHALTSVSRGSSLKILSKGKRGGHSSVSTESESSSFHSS
molecule,measurement,setting,value
"hBD-3: Recombinant human β-defensin 3 produced using an hBD-3-His tag fusion construct cloned into pET-30c; exemplary sequence SEQ ID NO:15 (protein, listed as Homo sapiens, not fully specified (C-terminus); ends and bridges not checked) MRIHYLLFALLFLFLVPVPGHGGIINTLQKYYCRVRGGRCAVLSCLPKEEQIGKCSTRGRKCCRRKK",anti-HIV-1 effect after pelleting and extensive washing of virions,"HIV-1 X4 B-HXB2; 20 μg/ml in 10 mM PB 1 h, RT activity 48 h post-infection",maintained after washing
same,effect of subsequent addition of hBD to the cell-virus mixture,"HIV-1 X4 B-HXB2; additional 20 μg/ml during infection, enhancement only against the CXCR4-tropic strain",enhanced anti-HIV-1 activity
same,anti-HIV-1 effect after pelleting and extensive washing of virions,HIV-1 R5-C-97ZA003,maintained after washing
same,gold particles bound to MT4 cellular membrane,MT4 cellular membrane,bound both to virions and to the MT4 cellular membrane
same,detection of peptide on the cell surface,CEM X4/R5 cells,failed to detect
same,gold particles bound to virions,HIV-1 B-HXB2 virions,bound both to virions and to the MT4 cellular membrane
same,decrease of surface expression of CXCR4 (±SD),CXCR4,52%±20%
